The values below come from article PMC10692737.

The test deals with Rabbit skeletal muscle actin (filaments with free barbed ends) (rabbit) (UniProt P68135).

Chain of C-terminal half of mouse CAP2, C-CAP2 (219–476)-6His (Q9CYT6 219-476): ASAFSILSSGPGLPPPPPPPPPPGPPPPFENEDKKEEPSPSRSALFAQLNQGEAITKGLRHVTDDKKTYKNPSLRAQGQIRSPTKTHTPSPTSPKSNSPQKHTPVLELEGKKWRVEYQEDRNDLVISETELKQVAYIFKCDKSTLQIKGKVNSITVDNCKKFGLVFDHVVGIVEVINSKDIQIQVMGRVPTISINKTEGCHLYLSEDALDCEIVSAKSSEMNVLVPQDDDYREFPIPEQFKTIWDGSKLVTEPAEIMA

In the case of “C-terminal half of mouse CAP2, C-CAP2 (219–476)-6His (from UniProt Q9CYT6 219-476) (domain or fragment)”, the barbed end depolymerization rate in mf-TIRF, no actin monomers, 1 μM C-CAP2 (2.5- to 3-fold faster than control) (subunits s^−1) stood at 10.8.
